We go through four substances from paper PMC9813072 (Osteoporosis International, 2022).

The format of data set [1] is in vivo, healthy men and postmenopausal women. The settings on record: single SC 20 μg; N = 105 per treatment.
For data set [2] the following is noted: cited from earlier work.
A further data set deals with serum calcium. The note with it: teriparatide 20 μg once a day; cited from earlier work.

Regarding “EU-teriparatide: Forsteo®, Eli Lilly, The Netherlands; EU-approved teriparatide reference product”, in data set [1], the “Total adverse events, number of events” value amounted to 5 e and the “Total adverse events, subjects” value is 4 (3.81%) n (%).
In the case of Teriparatide, the Half-life entry in data set [2] (after SC injection) is reported as “approximately 1 h”. The “Time to peak serum concentration” value in data set [2] (after SC injections of 20, 40, and 80 μg) was “approximately 30 min”. In data set [2] (following SC administration), the Absolute bioavailability was 95%. For the same substance, the “Median increase of serum calcium at peak” value in the data set with serum calcium is 0.4 mg/dL.
“Teriparatide biosimilar: potential biosimilar of teriparatide developed by Intas Pharmaceutical Ltd., India; test product”: the “Total adverse events, subjects” value in data set [1] was 8 (7.62%) n (%).
With “US-teriparatide: Forteo®, Lilly USA; US-approved teriparatide reference product”, in data set [1], the “Total adverse events, number of events” value turned out to be 3 e and the “Total adverse events, subjects” value is 3 (2.86%) n (%).
